Patent publication US11618906B2, “Hydroxylation techniques” (HYPHA DISCOVERY LTD., priority 2018, dated 2023)
Numbering of substitutions follows the chain as printed. Names and notes keep the numbering of the source.

B1: aluC09M37: cytochrome P450 aluC09 mutant T291W; amino acid sequence SEQ ID NO: 60 (protein, listed as Amycolatopsis lurida)
chain: MTDVEETTATLPLARKCPFSPPPEYERLRRESPVSRVGLPSGQTAWALTRLEDIREMLSSPHFSSDRQSPSFPLMVARQIRREDKPFRPSLIAMDPPEHSRARRDVVGEFTVKRMKALQPRIQQIVDEHLDALLAGPKPADLVQALSLPVPSLVICELLGVPYSDHEFFQSCSSRMLSREVTAEERMTAFEQLENYLDELVTKKEANATEDDLLGRQILKQRETGEADHGELVGLAFLLLIAGHETTANMISLGTVTLLENPDQLAKIKADPGKTLAAIEELLRVFTIAEWATSRFATADVEIGGTLIRAGEGVVGLSNAGNHDPDGFENPDTFDIERGARHHVAFGFGVHQCLGQNLARLELQIVFDTLFRRVPGLRIAVPVDELPFKHDSTIYGLHALPVTW
B2: aluC09M40: cytochrome P450 aluC09 mutant T291R; amino acid sequence SEQ ID NO: 72 (protein, listed as Amycolatopsis lurida)
chain: B1 chain with W291R

Key:
Format in all cases: biochemical
[1] = Hydroxylation of diclofenac catalysed by cytochrome P450 aluC09 and mutants (UPLC-PDA-MS); conditions: for 4′,5-dihydroxy-diclofenac 1.38 mins / 4′-hydroxy-diclofenac (1) 1.62 mins / 5-hydroxy-diclofenac (2) 1.58 mins / Diclofenac (Substrate) 1.81 mins: % by UV peak area at 275 nm, 0.125 mg/ml substrate, 27° C., 16-20 hours; for Hydroxylated Ratio hydroxy 1:hydroxy 2: diclofenac, ratio of UV peak areas at 275nm
Outline: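 Lyophilised CYP450aluC09 or mutants, with ferredoxin aluF03 and reductase SCF15A, incubated 16-20 hours at 27° C with 0.125 mg/ml diclofenac in 50 mM potassium phosphate pH 7.4, 5 mM MgCl2, and G6P/NADP/G6PDH regeneration. Acetonitrile-extracted; conversion by UPLC-PDA-MS against authentic hydroxylated standards.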

[2] = Hydroxylation of flufenamic acid catalysed by cytochrome P450 aluC09 and mutants; conditions: for Flufenamic Acid (Substrate) 1.93 mins / Hydroxy-Flufenamic Acid (1) 1.69 mins / Hydroxy-Flufenamic Acid (2) 1.65 mins: % by UV peak area at 275 nm, 0.125 mg/ml substrate, 27° C., 16-20 hours; for Hydroxylated Ratio 1:2: flufenamic acid, ratio of UV peak areas at 275 nm
Outline: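 Lyophilised CYP450aluC09 mutants with ferredoxin aluF03 and reductase SCF15A, in 50 mM potassium phosphate pH 7.4, 5 mM MgCl2, 0.125 mg/ml flufenamic acid, G6P/NADP/G6PDH NADPH regeneration. Shaken 16-20 h at 27° C; acetonitrile-quenched, conversion to two hydroxy products by UPLC-MS.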

[3] = Hydroxylation of aceclofenac catalysed by cytochrome P450 aluC09 and mutants; conditions: for Aceclofenac (Substrate) (1.80 mins) / Dihydroxy-Aceclofenac (1.42 mins) / Hydroxy-Aceclofenac (1) (1.64 min) / Hydroxy-Aceclofenac (2) (1.60 min): % by UV peak area at 275 nm, 0.125 mg/ml substrate, 27° C., 16-20 hours; for Hydroxylated Ratio 2:1: aceclofenac, ratio of UV peak areas at 275 nm
Outline: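 Conversion was assessed by UPLC-MS (UV and MS detection) after acetonitrile extraction of reactions run 16-20 h at 27° C, shaking. Reactions contained substrate at 0.125 mg/ml, P450 mutant plus ferredoxin and reductase partners, 1 mM NADP with glucose-6-phosphate regeneration, in phosphate buffer pH 7.4.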

[4] = Hydroxylation / de-N-ethylation of napropamide catalysed by cytochrome P450 aluC09 and mutants; conditions: for Desethyl Napropamide (1.62 min) / Desethyl-hydroxy-Napropamide (1.41 min) / Hydroxy-Napropamide (1) (1.53 min) / Hydroxy-Napropamide (2), (1.52 min) / M-2Da (unidentified) (1.89 min) / Napropamide (substrate): % by UV peak area at 275 nm, 0.125 mg/ml substrate, 27° C., 16-20 hours; for Hydroxylated Ratio 2:1: napropamide, ratio of UV peak areas
Outline: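 Conversion of napropamide (0.125 mg/ml) to hydroxylated and de-ethylated metabolites was measured by UPLC-MS after acetonitrile extraction. Reactions ran 16-20 h at 27° C in pH 7.4 potassium phosphate (50 mM) with 5 mM MgCl2, 1 mM NADP, 5 mM G6P and 2 UN/ml G6PDH. Enzymes were lyophilised P450 aluC09 variants, ferredoxin aluF03 and ferredoxin reductase SCF15A.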

[5] = O-demethylation of indomethacin catalysed by cytochrome P450 aluC09 and mutants; conditions: % by UV peak area at 275 nm; 0.125 mg/ml substrate, 27° C., 16-20 hours
Outline: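 Lyophilised CYP450aluC09 mutants with ferredoxin aluF03 and reductase SCF15A, 0.125 mg/ml substrate, 50 mM potassium phosphate pH 7.4, 5 mM MgCl2, G6P/G6PDH/NADP recycling. Shaken 16-20 h at 27° C. Acetonitrile-quenched, conversion measured by UPLC-MS.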

[6] = Metabolism of ritonavir by P450 aluC09 and mutants; conditions: percent of substrate being converted; 0.125 mg/ml, 27° C., 16-20 hours; [CYP] per enzyme as in Table 8
Outline: (§1)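 Read-out was substrate conversion by UPLC-MS after acetonitrile extraction. Reactions had contained lyophilised aluC09 mutant enzymes with ferredoxin and ferredoxin reductase partners, substrate at 0.125 mg/ml, and a glucose-6-phosphate dehydrogenase NADPH-regenerating system, shaken 16-20 hours at 27° C.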

[7] = Metabolism of celecoxib by P450 aluC09 and mutants; conditions: percent of substrate being converted; 0.125 mg/ml, 27° C., 16-20 hours; [CYP] per enzyme as in Table 8
Outline: as §1

[8] = Metabolism of epothilone B by P450 aluC09 and mutants; conditions: percent of substrate being converted; 0.125 mg/ml, 27° C., 16-20 hours; [CYP] per enzyme as in Table 8
Outline: as §1

[9] = Metabolism of buparvaquone by P450 aluC09 and mutants; conditions: percent of substrate being converted; 0.125 mg/ml, 27° C., 16-20 hours; [CYP] per enzyme as in Table 8
Outline: as §1

[10] = Metabolism of BIRB796 by P450 aluC09 and mutants; conditions: percent of substrate being converted; 0.125 mg/ml, 27° C., 16-20 hours; [CYP] per enzyme as in Table 8
Outline: as §1

[11] = Metabolism of bosentan by P450 aluC09 and mutants; conditions: percent of substrate being converted; 0.125 mg/ml, 27° C., 16-20 hours; [CYP] per enzyme as in Table 8
Outline: as §1

[12] = Metabolism of valsartan by P450 aluC09 and mutants; conditions: percent of substrate being converted; 0.125 mg/ml, 27° C., 16-20 hours; [CYP] per enzyme as in Table 8
Outline: as §1

[13] = Metabolism of ruxolitinib by P450 aluC09 and mutants; conditions: percent of substrate being converted; 0.125 mg/ml, 27° C., 16-20 hours; [CYP] per enzyme as in Table 8
Outline: as §1

[14] = Metabolism of 4-pyrrolidylacetophenone by P450 aluC09 and mutants; conditions: percent of substrate being converted; 0.125 mg/ml, 27° C., 16-20 hours; [CYP] per enzyme as in Table 8
Outline: as §1

[15] = Metabolism of tivantinib by P450 aluC09 and mutants; conditions: percent of substrate being converted; 0.125 mg/ml, 27° C., 16-20 hours; [CYP] per enzyme as in Table 8
Outline: as §1

[16] = Metabolism of tofacitinib by P450 aluC09 and mutants; conditions: percent of substrate being converted; 0.125 mg/ml, 27° C., 16-20 hours; [CYP] per enzyme as in Table 8
Outline: as §1

| Molecule | 4′,5-dihydroxy-diclofenac 1.38 mins [1] | 4′-hydroxy-diclofenac (1) 1.62 mins [1] | 5-hydroxy-diclofenac (2) 1.58 mins [1] | Diclofenac (Substrate) 1.81 mins [1] | Hydroxylated Ratio hydroxy 1:hydroxy 2 [1] | Flufenamic Acid (Substrate) 1.93 mins [2] | Hydroxy-Flufenamic Acid (1) 1.69 mins [2] | Hydroxy-Flufenamic Acid (2) 1.65 mins [2] | Hydroxylated Ratio 1:2 [2] | Aceclofenac (Substrate) (1.80 mins) [3] | Dihydroxy-Aceclofenac (1.42 mins) [3] | Hydroxy-Aceclofenac (1) (1.64 min) [3] | Hydroxy-Aceclofenac (2) (1.60 min) [3] | Hydroxylated Ratio 2:1 [3] | Desethyl Napropamide (1.62 min) [4] | Desethyl-hydroxy-Napropamide (1.41 min) [4] | Hydroxy-Napropamide (1) (1.53 min) [4] | Hydroxy-Napropamide (2), (1.52 min) [4] | M-2Da (unidentified) (1.89 min) [4] | Napropamide (substrate) [4] | also measured |
| --- | --- | --- | --- | --- | --- | --- | --- | --- | --- | --- | --- | --- | --- | --- | --- | --- | --- | --- | --- | --- | --- |
| B1 | 1.9% | 31.4% | 15.9% | 51.8% | 2.0 | 91.3% | 6.4% | 2.2% | 2.9 | 4.2% | 56.0% | 4.5% | 35.3% | 7.8 | 40.1% | 3.3% | 1.6% | 3.3% | 6.0% | 47.3% | Hydroxylated Ratio 2:1 [4]: 2.1; Indomethacin (1.74 mins) [5]: 89.0%; O-demethyl-Indomethacin (1.52 mins) [5]: 11.0%; % conversions (avg) Ritonavir [6]: 64.1%; % conversions (avg) Celecoxib [7]: 7.2%; % conversions (avg) Epothilone B [8]: 50.2%; % conversions (avg) Buparvaquone [9]: 10.5%; % conversions (avg) BIRB796 [10]: 10%; % conversions (avg) Bosentan [11]: 98.6%; % conversions (avg) Valsartan [12]: 41%; % conversions (avg) Ruxolitinib [13]: 34.2%; % conversions (avg) 4-pyrrolidylacetophenone [14]: 7.3%; % conversions (avg) Tivantinib [15]: 31%; % conversions (avg) Tofacitinib [16]: 0.9% |
| B2 | 2.2% | 35.7% | 14.3% | 48.8% | 2.5 | 94.8% | 4.4% | 0.9% | 4.9 | 46.3% | 12.7% | 19.7% | 21.4% | 1.1 | 12.9% | 0.4% | 2.3% | 1.8% | 2.4% | 80.6% | Hydroxylated Ratio 2:1 [4]: 0.8; Indomethacin (1.74 mins) [5]: 88.8%; O-demethyl-Indomethacin (1.52 mins) [5]: 11.2%; % conversions (avg) Ritonavir [6]: 53.4%; % conversions (avg) Celecoxib [7]: 0%; % conversions (avg) Epothilone B [8]: 2.4%; % conversions (avg) Buparvaquone [9]: 0%; % conversions (avg) BIRB796 [10]: 0%; % conversions (avg) Bosentan [11]: 76.5%; % conversions (avg) Valsartan [12]: 7.3%; % conversions (avg) Ruxolitinib [13]: 5.2%; % conversions (avg) 4-pyrrolidylacetophenone [14]: 1.7%; % conversions (avg) Tivantinib [15]: 5.3%; % conversions (avg) Tofacitinib [16]: 0.4% |
